This note sets out measurements from US20260116946A1, “NOVEL CD200 FUSION PROTEINS” (DUCENTIS BIOTHERAPEUTICS LIMITED, priority 2022, published 2026).

One experiment has as its target T1, human CD200R (Homo sapiens, UniProt Q8TD46).
T1 construct: His; purchased Creative Biomart CD200R1-320H
T1 sequence (Q8TD46 25-348): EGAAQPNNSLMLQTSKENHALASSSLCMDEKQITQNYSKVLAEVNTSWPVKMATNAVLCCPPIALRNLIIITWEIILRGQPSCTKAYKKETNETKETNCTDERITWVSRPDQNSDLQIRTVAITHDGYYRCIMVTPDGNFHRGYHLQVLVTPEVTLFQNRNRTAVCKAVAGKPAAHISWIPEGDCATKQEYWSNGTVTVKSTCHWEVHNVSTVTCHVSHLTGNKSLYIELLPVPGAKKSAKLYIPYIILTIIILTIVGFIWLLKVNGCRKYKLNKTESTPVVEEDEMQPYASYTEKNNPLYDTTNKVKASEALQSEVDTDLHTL
The experiment in a line: BIAcore SPR binding of CD200-Fc to human CD200R. The source says:
(§1) BIAcore instrumentation uses an optical method, Surface Plasmon Resonance (SPR), to measure the binding characteristics of two interacting molecules; in this case wild-type CD200-Fc or CD200-Fc mutants binding to the CD200 receptor (CD200R). The technique measures changes in the refractive index of one of the two interacting molecules captured on a chip (sensor) when the second molecule is flowed in solution over the captured partner. In these experiments CD200-Fc was immobilized on the chip (sensor) surface and CD200R was injected in an aqueous buffer over the captured CD200-Fc under continuous flow conditions. Changes in the CD200-Fc refractive index following CD200R binding were measured in real time and the result plotted as response units (RUs) versus time to generate sensorgrams.
The experiments were performed on a GE Healthcare BIAcore T200. Human, cynomolgus and mouse CD200R proteins were purchased from Creative Biomart (CD200R1-320H, CD200R1-3483C, CD200R1-3280M). All measurements were performed in duplicate.
For human CD200 constructs: anti-human Fc (GE Healthcare) was covalently immobilized on a BIAcore CM5 sensor chip (Cytiva, BR100530) by amine coupling using a Cytiva kit (BR100839) following the manufacturer's instructions, targeting immobilization of 8,000-11,000 RU. […]
(§2) For mouse CD200 constructs, muCD200R-Fc (Creative Biomart CD200R1-458M) diluted to 1 μg/mL in running buffer was flowed over the immobilized Anti-Human IgG Fc, with CD200 monomers serially diluted and flowed over captured CD200R. […] Data analysis: experimental sensorgrams were analyzed in BIAevaluation software (GE Healthcare). […] Closeness of fit was determined by algorithms provided by the manufacturer in the BIAevaluation software, and data accepted if the Chi^2 value was less than 10% of Rmax, and the U value was less than or equal to 15.

A further experiment has as its system cyno CD200R. The experiment in a line: BIAcore SPR binding of CD200-Fc to cynomolgus CD200R. Particulars: 25° C., mean of two runs.
Source text: as §1
The experiments were performed on a GE Healthcare BIAcore T200. […]
as §2

For the next experiment, the system named is U937-CD200R cells. The experiment can be described thus: Cell binding to U937-CD200R cells by flow cytometry. Particulars: 1, 4 and 24 hours at 37° C., anti-human IgG secondary, compared to DS-155. Here is the method: U937 cells were re-suspended with a density of 0.1 million cells per test with 50 μL FACS buffer (1×PBS+2% FBS).
Treatment with CD200-Fc proteins (50 μL) was performed starting from 10 μg/mL with 3-fold dilutions up to 10 concentrations with FACS buffer and incubated for 1-hour, 4-hours and 24-hours at 37° C. At the end of each time point, cells were collected and washed. 10 μg/mL of anti-human secondary antibody was added and incubated for 30 minutes at 4° C. Cells were washed post incubation and stained to check viability (1 μL dye per million cells per mL 1×PBS) for 20 minutes at 4° C. Cells were washed and fixed with Fixation buffer (100 μL per test) at 4° C. for 20 minutes. Post incubation, cells were washed and the pellet was re-suspended in FACS buffer (100 μL per test) for data acquisition on the flow cytometer.
For the 24-hour time point, treatment with CD200-Fc protein was performed with cell culture media. Wash step=addition of 200 μL FACS buffer and centrifugation at 1400 RPM.
The binding of ARQ-234 to U937-CD200R cells was compared to a wild type control CD200-Fc (DS-155) at 1, 4 and 24 hrs at human physiological temperature (37° C.) and binding was detected using flow cytometry with an anti-human IgG antibody.
(Flow cytometry measures light scatter and fluorescence of single cells or particles in a stream.)

[1] abbreviates: human CD200R, 25° C., mean of two runs.

“Also recorded” adds a separate entry of the source.

As to “ARQ-234: mutated human CD200-Fc fusion protein: CD200 K130Y, I131Y directly fused to IgG4 Fc S228P, M428L, N434S”, the figures for the “ka” value in the experiment with human CD200R (setting [1]) and with cyno CD200R were 221600 M⁻¹ s⁻¹ and 159100 M⁻¹ s⁻¹, respectively. For the same substance, the “kd” value with human CD200R (setting [1]) turned out to be 0.0004675 s⁻¹; at cyno CD200R it was 0.03997 s⁻¹. Moreover, the “fold greater affinity for human CD200 receptor than wild-type CD200-Fc (DS-155)” value with human CD200R (versus DS-155) is on record as “approx. 84 fold”. Also, the “binding to U937-CD200R cells” value in the experiment on U937-CD200R cells is listed as “superior binding of ARQ-234 to CD200R-expressing cells compared to DS-155; also recorded: more potent target engagement compared to DS-155”.
